Biological target: T1, GST-ubiquitin (human, UniProt P0CG48 1-76)
T1 construct: ubiquitin, the cut product of the polyubiquitin precursor; also called GST-tagged ubiquitin; source: purified
Test: pull-down; GST-ubiquitin (3 μg) on glutathione-sepharose beads, FLAG-Spartan (1 μg) in solution; 4 h at 4°C, buffer I (40 mM Tris HCl pH 7.5, 85 mM NaCl, 0.1 mM DTT, 10% glycerol, 0.01% NP40); immunoblot with anti-FLAG and anti-GST
Conditions: both partners purified

binding result: binds
B1: FLAG-Spartan PIP mutant YF331,332AA (natural protein, human, UniProt Q9H040 1-489, looked up)
chain: MDDDLMLALRLQEEWNLQEAERDHAQESLSLVDASWELVDPTPDLQALFVQFNDQFFWGQLEAVEVKWSVRMTLCAGICSYEGKGGMCSIRLSEPLLKLRPRKDLVETLLHEMIHAYLFVTNNDKDREGHGPEFCKHMHRINSLTGANITVYHTFHDEVDEYRRHWWRCNGPCQHRPPYYGYVKRATNREPSAHDYWWAEHQKTCGGTYIKIKEPENYSKKGKGKAKLGKEPVLAAENKDKPNRGEAQLVIPFSGKGYVLGETSNLPSPGKLITSHAINKTQDLLNQNHSANAVRPNSKIKVKFEQNGSSKNSHLVSPAVSNSHQNVLSNAAPRVSFANQKAFRGVNGSPRISVTVGNIPKNSVSSSSQRRVSSSKISLRNSSKVTESASVMPSQDVSGSEDTFPNKRPRLEDKTVFDNFFIKKEQIKSSGNDPKYSTTTAQNSSSSSSQSKMVNCPVCQNEVLESQINEHLDWCLEGDSIKVKSEESL
notes: Spartan/C1orf124, human; cDNA clone bought from ImaGenes; also called PIP mutant Spartan; YF331,332AA Spartan; source: S. cerevisiae BJ5464, purified (glutathione-Sepharose, eluted by PreScission protease); not shown: GST, N-terminal, cleaved; FLAG, N-terminal, kept
